Data on 3 molecules can be found in patent US20180214568A1.

Test [1] has as its target CD56 on the surface of human neuroblastoma cells (human) (UniProt P13591). The test is described as follows: cell-based or functional assay.
The target is the same in test [2].
Test [3] deals with human CD56 whole ectodomain (residues 20-720) (human) (UniProt P13591). Kind of test: SPR (BIACORE X100), CD56 ectodomain immobilized, Fab in flow, 1:1 model.
The target is the same in test [4]. The test is described as follows: BIACORE, Fab on immobilised CD56 ectodomain.

A value given as a limit tells only on which side of the number the result lay.

B1: m906 IgG1 (antibody, V domains shown)
VH: EVQLVQSGAEVKKPGSSVKVSCKASGGTFTGYYMHWVRQAPGQGLEWMGWINPNSGGTNYAQKFQGRVTMTRDTSISTAYMELSRLRSDDTAVYYCARDLSSGYSGYFDYWGQGTLVTVSS
VL: DVVMTQSPLSLPVTPGEPASISCRSSQSLLHSNGYNFLDWYLQKPGQSPQLLIYLGSNRASGVPDRFSGSGSGTDFTLKISRVEADDVGVYYCMQSLQTPWTFGHGTKVEIKR
In test [1], B1 returned a percent reduction in CD56 cell surface expression, Kelly cells, 50 nM m906 overnight of 93%; a percent reduction in CD56 cell surface expression, SKNAS cells, 50 nM m906 overnight of 21%; a percent reduction in CD56 cell surface expression, other neuroblastoma cell lines, 50 nM m906 overnight above 60%.

B2: m906PBD (antibody, V domains shown)
VH: EVQLVQSGAEVKKPGSSVKVSCKASGGTFTGYYMHWVRQAPGQGLEWMGWINPNSGGTNYAQKFQGRVTMTRDTSISTAYMELSRLRSDDTAVYYCARDLSSGYSGYFDYWGQGTLVTVSS
VL: DVVMTQSPLSLPVTPGEPASISCRSSQSLLHSNGYNFLDWYLQKPGQSPQLLIYLGSNRASGVPDRFSGSGSGTDFTLKISRVEADDVGVYYCMQSLQTPWTFGHGTKVEIKR
modifications: PBD-MC conjugated to cysteine residues of the reduced IgG (sites not given); PBD-MC (pyrrolobenzodiazepine dimer with maleimide) conjugated to cysteine residues of the reduced IgG
On to B2, for which the IC50 (read off the curve), % survival of CHP134 cells, ADC alone in test [2] is 0.01 nM. For the same molecule, in test [1], the killing of IMR5 cells (cell viability, 4 days) was determined as 5 pM.

B3: m906 Fab (Fab, V domains shown)
VH: EVQLVQSGAEVKKPGSSVKVSCKASGGTFTGYYMHWVRQAPGQGLEWMGWINPNSGGTNYAQKFQGRVTMTRDTSISTAYMELSRLRSDDTAVYYCARDLSSGYSGYFDYWGQGTLVTVSS
VL: DVVMTQSPLSLPVTPGEPASISCRSSQSLLHSNGYNFLDWYLQKPGQSPQLLIYLGSNRASGVPDRFSGSGSGTDFTLKISRVEADDVGVYYCMQSLQTPWTFGHGTKVEIKR
Regarding B3, the values for the Kd in test [3] and in test [4] were 4.5 nM and 4.49 nM, respectively.
